For orientation: pKa means the negative logarithm of the acid dissociation constant.

The values that follow come from PMC7541481, “A unique clade of light-driven proton-pumping rhodopsins evolved in the cyanobacterial lineage” (Scientific Reports, 2020).

A value given as a limit tells only on which side of the number the result lay.

The target in data set [1] is T1, N2098R (Calothrix sp., UniProt Z9R0O1FWN2).
T1 construct: crystal: E. coli cell-free synthesis; retinal analysis: synthetic codon-optimized gene in pET21a, E. coli, C-terminal His-tag, DDM-solubilized
T1 sequence (Z9R0O1FWN2 8-254): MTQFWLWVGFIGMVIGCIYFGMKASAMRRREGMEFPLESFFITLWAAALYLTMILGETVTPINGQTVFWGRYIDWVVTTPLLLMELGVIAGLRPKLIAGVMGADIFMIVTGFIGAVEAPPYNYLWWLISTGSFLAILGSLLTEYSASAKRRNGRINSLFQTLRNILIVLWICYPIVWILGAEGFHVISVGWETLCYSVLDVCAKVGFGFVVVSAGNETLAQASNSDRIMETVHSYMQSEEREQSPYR
The experiment in a line: X-ray crystal structure ([…] Å); retinal isomer HPLC. Type of data set: binding. As to conditions: covalent; Schiff base with Lys204; in meso crystals.

The target in data set [2] is T2, N4075R (Tolypothrix sp., UniProt Z9F5K4BE25).
T2 construct: E. coli cell-free synthesis for crystallization, in meso
T2 sequence (Z9F5K4BE25 8-259): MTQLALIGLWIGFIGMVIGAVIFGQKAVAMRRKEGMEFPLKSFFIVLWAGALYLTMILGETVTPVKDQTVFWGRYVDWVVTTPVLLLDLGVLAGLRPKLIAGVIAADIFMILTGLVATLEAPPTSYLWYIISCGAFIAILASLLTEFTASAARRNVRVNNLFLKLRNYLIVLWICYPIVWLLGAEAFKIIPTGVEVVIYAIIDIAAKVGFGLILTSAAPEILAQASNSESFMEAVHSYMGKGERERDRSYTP
Description: X-ray crystal structure ([…] Å). Type of data set: binding. As to conditions: covalent; Schiff base lysine; isomer not stated for this protein.

Data set [3] deals with Asp97 (UniProt position 97, VFRYIDWLLTV). The settings on record: cited from earlier work.
The target in data set [4] is Asp121 (UniProt position 121, AYRYVDWLLTV). As to conditions: cited from earlier work.
Data set [5] addresses Asp85 (UniProt position 98, WARYADWLFTT). As to conditions: cited from earlier work.
Data set [6] concerns the target Asp74 (position 74, …). Description: UV-vis. The settings on record: room temperature (approx. 25°C); 50 mM NaCl; seven-mix buffer (Tris, citric acid, MES, HEPES, MOPS, CHES, CAPS; 10 mM each); dark/unphotolysed state under room light, all-trans retinal bound, detergent-solubilised, folded (reversibility checked).

On to `CC1=C(/C=C/C(C)=C/C=C/C(C)=C/C=O)C(C)(C)CCC1` [all-trans retinal], for which the “X-ray crystal structure (2.65 Å); retinal isomer HPLC” value in data set [1] is “the isomeric state of retinal was predominantly all-trans”. In addition, the “X-ray crystal structure (1.9 Å)” value in data set [2] is listed as “Since the two structures were almost identical, only the structure of N2098R is described”. Turning to “Green-absorbing proteorhodopsin (GPR) (uncultured marine gamma proteobacterium EBAC31A08)”, the pKa entry in data set [3] is “Approx. 7.9”. As for “Gloeobacter rhodopsin (GR) (Gloeobacter violaceus PCC 7421)”, the pKa entry in data set [4] was “Approx. 5.9”. As for “Bacteriorhodopsin (BR) (Halobacterium salinarum)”, the pKa entry in data set [5] is “Approx. 2.6”.

B1: Cyanorhodopsin N2098R (Calothrix sp. NIES-2098) (protein)
chain: T1 sequence (Z9R0O1FWN2 8-254)
B1 displayed a pKa in data set [6] of under 2.0.
